Laboratory results as given in PMC10643670, “Functional and structural diversity in deubiquitinases of the Chlamydia-like bacterium Simkania negevensis” (Nature Communications, 2023).

Target: T1, wild-type Met1-linked di-ubiquitin (UniProt P0CG48 1-76; P0CG48 1-76)
T1 construct: ubiquitin, first moiety of the linear fusion (residues 1-76 of the di-ubiquitin); ubiquitin, second moiety of the linear fusion (residues 77-152 of the di-ubiquitin); In the crystal each di-ubiquitin bridges two SnOTU molecules: residues 1-76 lie in the S1' site of one SnOTU and residues 77-152 in the S1 site of the other; also called linear di-ubiquitin; M1-linked di-ubiquitin; source: expressed …
Test: crystal structure; catalytic inactive SnOTU 1-255 and linear di-ubiquitin mixed in a 1:1.1 ratio; sitting drop vapor diffusion, 4 °C; 0.25 M magnesium formate, 20% w/v PEG 3350, 0.02 M EDTA disodium salt
Conditions: both partners purified

B1: catalytically inactivated (C82A) fragment SnOTU 1-255 (domain or fragment)
chain: MSLPVKERPDAIYTFEGKTYENTSFSKTGIPIVGQPLKMEAYVHKEYTHVTSLEGKRFKSQLEEAAKIYGEQLHEIQGDGNALTTAFATSFLYLLNGNATLIATFDNILIGLDAHKNIPPVRQTIEKLKVKNDLELKQILASNETMFAFSSVIRHLARQKLPELGEPFSLLIDEMVPEEDGKEIEIACIGGLCQLLNICADVIYLRKDYDTFKIERYPNETGKPDLVILRKAAHFLSIILDSKKSIEERTNELGK
notes: resolved from residues 2 to 242 in PDB 8CMR; Amplified from S. negevensis genomic DNA (DSM No.27360), cloned into pOPIN-S; source: E. coli Rosetta (DE3) pLysS, purified (HisTrap FF, tag removal, SEC); not shown: His6, N-terminal, cleaved; Smt3, N-terminal, cleaved
- binding result: binds
